The values below come from patent CN111138527A (INST MILITARY MEDICINE ACADEMY MILITARY SCIENCES PLA, dated 2020).

Assay [1] deals with GP 95-295 (Ebola virus (EBOV), UniProt Q05320 95-295). The experiment in a line: ELISA on coated truncated GP. In general terms: ELISA stands for enzyme-linked immunosorbent assay.
Assay [2] addresses GP1 (Ebola virus (EBOV), UniProt Q05320 33-501). The experiment in a line: ELISA on coated truncated GP.
Assay [3] deals with sGP (Ebola virus (EBOV), UniProt P60170 33-295). The experiment in a line: ELISA on coated truncated GP.
In assay [4] the target is T1, EBOV GP (Ebola virus (EBOV), UniProt Q05320 33-650).
T1 sequence: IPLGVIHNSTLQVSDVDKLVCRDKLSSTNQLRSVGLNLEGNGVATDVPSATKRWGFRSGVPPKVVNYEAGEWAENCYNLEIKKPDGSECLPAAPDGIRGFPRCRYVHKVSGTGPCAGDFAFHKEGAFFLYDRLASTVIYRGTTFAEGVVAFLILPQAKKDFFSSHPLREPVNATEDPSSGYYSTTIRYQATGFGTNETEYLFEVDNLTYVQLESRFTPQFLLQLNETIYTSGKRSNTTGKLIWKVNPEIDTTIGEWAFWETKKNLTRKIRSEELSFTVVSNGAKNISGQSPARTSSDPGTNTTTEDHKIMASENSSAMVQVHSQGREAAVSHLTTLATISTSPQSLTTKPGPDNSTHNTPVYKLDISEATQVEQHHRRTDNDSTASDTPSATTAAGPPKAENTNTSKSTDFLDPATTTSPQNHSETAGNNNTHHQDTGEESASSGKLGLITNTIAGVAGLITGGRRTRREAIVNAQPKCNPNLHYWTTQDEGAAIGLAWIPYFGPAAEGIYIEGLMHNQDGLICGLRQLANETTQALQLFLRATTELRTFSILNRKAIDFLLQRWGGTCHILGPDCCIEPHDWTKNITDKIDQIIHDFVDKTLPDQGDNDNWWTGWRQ
The assay is described as follows: ELISA, EBOV GP coated at 1 μg/mL.

B1: 抗埃博拉病毒糖蛋白GP1亚基的单克隆抗体4F1 (antibody, V domains shown)
VH: EVQLVESGGGLVQPGGSLRLSCAASGFSFRIYDMHWVRQVTGRGLEWVSAIGSASDTYYRDSVKGRFTISRENAKNSLYLQMNSLRAGDTAVYYCARASFGELMFDLWGQGTLVTVSS
VL: DIQMTQSPSSLSLSPGERATLSCRASQSVGSSLAWYQQKPGQAPRLLIYAASSRATGFPDRFSGSGSGTDFTLTISRLEPEDFAVYYCQQYGGSPLTFGGGTKVEIKT
Regarding B1, the EC50 (in general, the concentration giving half of the maximal effect) in assay [1] was 33 ng/mL; in assay [2], 7.8 ng/mL; in assay [3] it was 3.9 ng/mL; in assay [4], 5.7 ng/mL. Also, in assay [1], the “fold decrease of binding activity relative to GPdTM” value is about 5 fold.
